Results taken from publication PMC7884335.

How the values were obtained:
Details in all cases: EMSA: Tris-HCl pH 8.0, MgCl2, NaCl, EDTA, 1 mM DTT, 0.01% NP-40, 50 ug/ml poly[d(I-C)], glycerol (masses given, total volume not stated), room temperature …
[1] = biological target: T1, His-RegX3 (Msm) (Mycobacterium smegmatis MC2 155) (UniProt Q9F868); experiment: EMSA
T1 sequence: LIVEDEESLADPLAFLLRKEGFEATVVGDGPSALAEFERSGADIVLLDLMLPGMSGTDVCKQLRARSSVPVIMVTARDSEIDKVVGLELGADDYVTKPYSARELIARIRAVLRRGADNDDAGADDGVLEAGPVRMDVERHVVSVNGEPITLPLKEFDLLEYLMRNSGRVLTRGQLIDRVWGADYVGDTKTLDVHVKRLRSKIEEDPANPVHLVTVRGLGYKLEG

[2] = system: His-PrpR (Msm) (Mycobacterium smegmatis MC2 155); experiment: BLI
[3] = system: His-RegX3 (Msm) (Mycobacterium smegmatis MC2 155); experiment: BLI

Row | Substance | binding [1] | Kd [2] [nM] | Kd [3] [nM]
1 | AGCCAGTGGCGATAAGACACACAGCCTAACCGCGATTCTTACACAGGATTTGCAAAGGCTGGCCCACCAGGACACAAAACTACGCATATACAGGCTCTTTACGTGCCATTAGGGGCCTTATCGCCACTGGCT (double strand) [PprpR-3] | binds |  | 
2 | prpR promoter probe for BLI (Msm) |  | 53.2 | 165
